System: Fab
Assay: Residual binding activity to Fab after alkali treatment (alkali resistance)
Type: physicochemical, human
Conditions: 0.2 mL peptide solution + 0.1 mL 45 mM sodium hydroxide, 25° C., 2 hours; compared with SpG mutant SEQ ID NO: 20
Protocol: Each peptide was subjected to dialysis using ultrapure water and the concentration thereof was adjusted to obtain 4 μM aqueous solution. To 0.2 mL of the aqueous solution, 0.1 mL corresponding to a half amount of the aqueous solution of 45 mM sodium hydroxide aqueous was added. The mixture was incubated at 25° C. for 2 hours and then neutralized by 0.1 mL of 50 mM acetic acid (pH 3.0). After it was confirmed that the mixture was neutralized by using a pH test paper, the mixture was diluted to 20 times by the standard buffer so that the concentration was adjusted to 100 nM.
The peptide solution prepared as the above was defined as a sample before alkali treatment at 0 hr, and 0.1 mL of the above sodium hydroxide aqueous solution and 0.1 mL of 50 mM acetic acid (pH 3.0) were preliminarily mixed and the mixture was added to the sample. The final concentration of the peptide in the solution was 100 nM.
A binding to an immunoglobulin by a similar method to Example 2(2) using Octet and the peptide solutions before and after the alkali treatment prepared in the above (1) was measured. An Fc was used instead of IgG in this experiment in order to simplify a binding pattern. […]
A residual binding activity to a Fab of the Fab-binding activity-enhanced peptides of SEQ ID NOs: 11 and 13 after the alkali resistance was also evaluated. […]

SEQ ID NO: 11: Fab-binding activity-enhanced immunoglobulin-binding peptide, partly mutated sequence of SEQ ID NOs: 2 to 7 (TTYKLIVKGNTLTGYTTTIAVDAETAEKALKQFANENGVYGEWSYDDATKTFTVTE; novel peptide)
Alkali resistance: residual binding activity to a Fab after the alkali treatment (FIG. 3B): similarly improved

SEQ ID NO: 13: Fab-binding activity-enhanced immunoglobulin-binding peptide, partly mutated sequence of SEQ ID NOs: 2 to 7 (TTYRLVIKGVTLTGYTATIAVDAATAEQTLRQFANDNGITGEWAYDTATKTFTVTE; novel peptide)
Alkali resistance: residual binding activity to a Fab after the alkali treatment (FIG. 3B): similarly improved

— patent publication US20200016512A1, “AFFINITY […] FOR PURIFYING IMMUNOGLOBULIN” (KANEKA CORPORATION, priority 2017, published 2020)
